Data reported in US20260035452A1 (THE UNIVERSITY OF BIRMINGHAM, priority 2022, published 2026).

What was measured:
dorsal air pouch of mice = assay: In vivo air pouch model; conditions: 1 μg/mice into air pouch, 24 h
Procedure: FIG. 3: Mice were treated with IL-17 vehicle (Ctrl), IL-17 (1 μg/mice) alone (IL-17) or peptide (FM-0410) (1 μg/mice) and thereafter total cell number from pouches inflammatory exudates was evaluated at 24 h. Data were expressed as millions of cells for pouch and presented as means±S.D. of n=7 mice per group. Statistical analysis was conducted by one-way ANOVA followed by Bonferroni's for multiple comparisons. ^##P≤0.01, ^###P≤0.005 vs Ctrl group; *P≤0.05 vs IL-17 group.
FIG. 4: Inflammatory supernatants obtained from the pouch cavities were assayed using a Proteome Profiler Cytokine Array for Ctrl, IL-17 and FM-0410 experimental group. Densitometric analysis is presented as heatmap. Data (expressed as INT/mm2) are presented as means±S.D. of positive spots of three independent experiments run each with n=7 mice per group.
FIG. 5: Mice were treated with IL-17 vehicle (Ctrl), IL-17 (1 μg/mice), or peptide (FM-0410) (1 μg/mice) and inflammatory fluids were assayed by Elisa for IL-6. Data were expressed as pg/ml and presented as means±S.D. of n=7 mice per group. Statistical analysis was conducted by one-way ANOVA followed by Bonferroni's for multiple comparisons. ^##P≤0.01 vs CTRL group. […]
Specifically, dorsal air pouches were prepared by injection of 2.5 ml of air on day 0 and day 3 as previously described (Maione et al., 2009). […] Inflammatory exudates were collected and measured to evaluate the level of inflammatory cyto-chemokines. Cell number was determined by TC20 automated cell counter (Bio-Rad, Milan, Italy) using Bio-Rad's TC20 automated cell counter uses disposable slides, TC20 trypan blue dye (0.4% trypan blue dye w/v in 0.81% sodium chloride and 0.06% potassium phosphate dibasic solution) and a CCD camera to count cells based on the analyses of capture images (Maione et al., 2018).
Methods: The levels of IL-6 in the cellular and air pouch inflammatory supernatants at 24 h were measured using commercially available enzyme-linked immunosorbent assay kit (ELISA kit, R&D System, Milan, Italy) according to the manufacturer instructions. […]

IL-17RA = IL-17RA (Homo sapiens, UniProt Q96F46); conditions: cited from earlier work

B1: IL-17: recombinant mouse IL-17 purchased from R&D System; full-length cytokine used as comparator and stimulus (protein, UniProt Q62386 26-158, looked up)
Interleukin-17A: AAIIPQSSACPNTEAKDFLQNVKVNLKVFNSLGAKVSSRRPSDYLNRSTSPWTLHRNEDPDRYPSVIWEAQCRHQRCVNAEGKLDHHMNSVLIQQEILVLKREPESCPFTFRVEKMLVGVGCTCVASIVRQAA
- cyto-chemokines profile of pouch fluid (Proteome Profiler Cytokine Array) (dorsal air pouch of mice): significant increase of cyto-chemokines profile compared to ctrl group
- level of IL-6 in pouch fluids (dorsal air pouch of mice): increased level of IL-6 compared to control group
- number of inflammatory leukocytes (total cell number from pouch exudates) (dorsal air pouch of mice): significant differences in the number of inflammatory leukocytes compared to control group
- affinity of IL-17RA for IL-17A compared to IL-17F (IL-17RA): ~100 fold
